# From PMC4745115
# Substrate: C[N+](C)(C)CCO
# Assay: SSM-based electrophysiology, peak currents, proteoliposomes
# Assay type: biochemical, Corynebacterium glutamicum
# Conditions: 500 mM NaCl, 250 mM KPi pH 7.5, 22 °C
protein,measurement,value
BetP (Corynebacterium glutamicum ATCC 13032; G153D) (protein) MTTSDPNPKPIVEDAQPEQITATEELAGLLENPTNLEGKLADAEEEIILEGEDTQASLNWSVIVPALVIVLATVVWGIGFKDSFTNFASSALSAVVDNLGWAFILFGTVFVFFIVVIAASKFGTIRLGRIDEAPEFRTVSWISMMFAAGMGIDLMFYGTTEPLTFYRNGVPGHDEHNVGVAMSTTMFHWTLHPWAIYAIVGLAIAYSTFRVGRKQLLSSAFVPLIGEKGAEGWLGKLIDILAIIATVFGTACSLGLGALQIGAGLSAANIIEDPSDWTIVGIVSVLTLAFIFSAISGVGKGIQYLSNANMVLAALLAIFVFVVGPTVSILNLLPGSIGNYLSNFFQMAGRTAMSADGTAGEWLGSWTIFYWAWWISWSPFVGMFLARISRGRSIREFILGVLLVPAGVSTVWFSIFGGTAIVFEQNGESIWGDGAAEEQLFGLLHALPGGQIMGIIAMILLGTFFITSADSASTVMGTMSQHGQLEANKWVTAAWGVATAAIGLTLLLSGGDNALSNLQNVTIVAATPFLFVVIGLMFALVKDLSNDVIYLEYREQQRFNARLARERRVHNEHRKRELAAKRRRERKASGAGKRR,Km,135 ± 28 µM
